From PMC6955223, “The adaptor proteins HAP1a and GRIP1 collaborate to activate the kinesin-1 isoform KIF5C” (Journal of Cell Science, 2019)

Target: T1, KIF5C–Halo (UniProt P28738 1-956, HaloTag TMR ligand on the HaloTag)
T1 construct: kinesin-1 heavy chain KIF5C; construct from Twelvetrees et al., 2016; also called KIF5C labelled with HaloTag TMR ligand; motor; source: COS cells, transfected, in lysate
T1 sequence (looked up): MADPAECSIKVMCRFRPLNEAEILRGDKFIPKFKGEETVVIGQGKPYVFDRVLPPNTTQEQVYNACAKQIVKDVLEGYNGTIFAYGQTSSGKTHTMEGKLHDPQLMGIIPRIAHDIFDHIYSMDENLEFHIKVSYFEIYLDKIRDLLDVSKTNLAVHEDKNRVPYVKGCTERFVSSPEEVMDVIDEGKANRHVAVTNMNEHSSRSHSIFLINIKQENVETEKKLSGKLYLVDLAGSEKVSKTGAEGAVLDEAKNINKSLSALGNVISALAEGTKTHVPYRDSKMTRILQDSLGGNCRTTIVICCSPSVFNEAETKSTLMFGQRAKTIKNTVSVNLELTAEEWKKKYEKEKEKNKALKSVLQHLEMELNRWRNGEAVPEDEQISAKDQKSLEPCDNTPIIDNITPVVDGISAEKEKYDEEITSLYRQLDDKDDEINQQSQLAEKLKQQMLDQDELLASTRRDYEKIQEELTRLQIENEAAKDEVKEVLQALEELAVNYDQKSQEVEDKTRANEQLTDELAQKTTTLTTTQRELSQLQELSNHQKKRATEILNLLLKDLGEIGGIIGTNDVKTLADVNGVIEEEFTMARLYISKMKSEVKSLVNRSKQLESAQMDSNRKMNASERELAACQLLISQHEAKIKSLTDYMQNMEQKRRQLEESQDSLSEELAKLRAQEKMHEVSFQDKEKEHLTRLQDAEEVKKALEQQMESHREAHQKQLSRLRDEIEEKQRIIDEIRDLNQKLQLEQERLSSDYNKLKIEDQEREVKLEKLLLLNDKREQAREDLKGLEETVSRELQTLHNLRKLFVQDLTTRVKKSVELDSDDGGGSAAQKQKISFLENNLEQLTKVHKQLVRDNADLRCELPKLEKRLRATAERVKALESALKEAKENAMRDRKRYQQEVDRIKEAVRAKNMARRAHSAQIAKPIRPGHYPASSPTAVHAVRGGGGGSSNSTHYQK
Test: counting of GFP photobleaching steps (TIRFM); motor–adaptor complexes from mixed cell lysates immobilised on microtubules with 15 mM AMP-PNP instead of ATP; GFP-labelled HAP1a and GRIP1 both present; bleaching steps counted for each spot
Settings: partners not purified

B1: GFP-labelled HAP1a (natural protein, rat, UniProt P54256-2 1-599, looked up)
chain: MRPKDQVQSSAGDGTGSGDPATGTPTTQPAADPAPEPSAEPKPAPAQGTGSGQKSGSRTKTGGSFCRSRIRGDSDAPWTRYIFQGPYGPRATGLGTGRAEGIWKTPAAYIGRRPGVSGPERAAFIRELQEALCPNPLPRKKITEDDIKVMLYLLEEKERDLNTAARIGQSLVKQNSVLMEENNKLETMLGSAREEILHLRKQVNLRDDLLQLYSDSDDDEEDEEDEEEEEGEEEEREGQRDQDQQHDHPYGAPKPPPKAETLHHCPQLEALKQKLKLLEEENDHLREEASHLDNLEDKEQMLILECVEQFSEASQQMAELSEVLVLRLEGYERQQKEITQLQAEITKLQQRCQSYGAQTEKLQQQLASEKGVHPESLRAGSHMQDYGSRPRERQEDGKSHRQRSSMPAGSVTHYGYSVPLDALPSFPETLAEELRTSLRKFITDPAYFMERCDTRCREERKKEQGTMPPPPVQDLKPPEDFEAPEELVPEEELGAIEEVGTAEDGPAEETEQASEETEAWEEVEPEVDEATRMNVVVSALEASGLGPSHLDMKYVLQQLSNWQDAHSKRQQKQKVVPKGECSRRGHPPASGTSYRSSTL
notes: huntingtin-associated protein 1, rodent isoform HAP1a; Construct not described in the methods; named only in the sentence on photobleaching; source: cell lysate (COS cells as for the motility assay)
  stoichiometry N: 2 HAP1a molecules per motor
